From FireProtDB (doi:10.1021/bi991422s)

B1: Guanyl-specific ribonuclease T1, P00651 (parent)
chain: MMYSKLLTLTTLLLPTALALPSLVERACDYTCGSNCYSSSDVSTAQAAGYQLHEDGETVGSNSYPHKYNNYEGFDFSVSSPYYEWPILSSGDVYSGGSPGADRVVFNENNQLAGVITHTGASGNNFVECT

Variants of: B1
Conditions: Aspergillus oryzae (strain ATCC 42149 / RIB 40); pH 7; 5 °C; Urea; DSC; MOPS 30 mM; reversible: yes; structure 1RN1; whole UniProt chain shown

Variant | ddG of mutation (higher = less stable) [kcal/mol] | denaturant m value [kcal/mol/M] | denaturant midpoint (higher = more stable) [M] | unfolding free energy [kcal/mol]
MMYSKLLTLTTLLLPTALALPSLVERACDYTCGSNCYSSSDVSTAQAAGYQLHEDGETVGSNSYPHKYNNYEGFDFSVSSPYYEWPILSSGDVYSGGSPGANRVVFNENNQLAGVITHTGASGNNFVECT [D102N] | 2.77 | 1.53 | 3.63 | 5.55

Same assay, conditions: Aspergillus oryzae (strain ATCC 42149 / RIB 40); pH 7; 10 °C; Urea; DSC; MOPS 30 mM; reversible: yes; structure 1RN1; whole UniProt chain shown

Variant | ddG of mutation (higher = less stable) [kcal/mol] | denaturant m value [kcal/mol/M] | denaturant midpoint (higher = more stable) [M] | unfolding free energy [kcal/mol]
MMYSKLLTLTTLLLPTALALPSLVERACDYTCGSNCYSSSDVSTAQAAGYQLHEDGETVGSNSYPHKYNNYEGFDFSVSSPYYEWPILSSGDVYSGGSPGANRVVFNENNQLAGVITHTGASGNNFVECT [D102N] | 2.87 | 1.52 | 3.3 | 5

Same assay, conditions: Aspergillus oryzae (strain ATCC 42149 / RIB 40); pH 7; 15 °C; Urea; DSC; MOPS 30 mM; reversible: yes; structure 1RN1; whole UniProt chain shown

Variant | ddG of mutation (higher = less stable) [kcal/mol] | denaturant m value [kcal/mol/M] | denaturant midpoint (higher = more stable) [M] | unfolding free energy [kcal/mol]
MMYSKLLTLTTLLLPTALALPSLVERACDYTCGSNCYSSSDVSTAQAAGYQLHEDGETVGSNSYPHKYNNYEGFDFSVSSPYYEWPILSSGDVYSGGSPGANRVVFNENNQLAGVITHTGASGNNFVECT [D102N] | 3.09 | 1.41 | 3.01 | 4.25
MMYSKLLTLTTLLLPTALALPSLVERACDYTCGSNCYSSSDVSTAQAAGYQLHEDGETVGSNSYPHKYNNYEGFDFSVSSPYYEWPILSSGDVYSGGSPGAARVVFNENNQLAGVITHTGASGNNFVECT [D102A] | 3.7 | 1.42 | 2.57 | –

Same assay, conditions: Aspergillus oryzae (strain ATCC 42149 / RIB 40); pH 7; 20 °C; Urea; DSC; MOPS 30 mM; reversible: yes; structure 1RN1; whole UniProt chain shown

Variant | ddG of mutation (higher = less stable) [kcal/mol] | denaturant m value [kcal/mol/M] | denaturant midpoint (higher = more stable) [M] | unfolding free energy [kcal/mol]
MMYSKLLTLTTLLLPTALALPSLVERACDYTCGSNCYSSSDVSTAQAAGYQLHEDGETVGSNSYPHKYNNYEGFDFSVSSPYYEWPILSSGDVYSGGSPGANRVVFNENNQLAGVITHTGASGNNFVECT [D102N] | 3.19 | 1.48 | 2.39 | 3.53

Same assay, conditions: Aspergillus oryzae (strain ATCC 42149 / RIB 40); pH 7; 25 °C; Urea; DSC; MOPS 30 mM; reversible: yes; structure 1RN1; whole UniProt chain shown

Variant | ddG of mutation (higher = less stable) [kcal/mol] | denaturant m value [kcal/mol/M] | denaturant midpoint (higher = more stable) [M] | unfolding free energy [kcal/mol]
MMYSKLLTLTTLLLPTALALPSLVERACDYTCGSNCYSSSDVSTAQAAGYQLHEDGETVGSNSYPHKYNNYEGFDFSVSSPYYEWPILSSGDVYSGGSPGANRVVFNENNQLAGVITHTGASGNNFVECT [D102N] | 3.51 | 1.44 | 1.8 | 2.58

Same assay, conditions: Aspergillus oryzae (strain ATCC 42149 / RIB 40); pH 7; Thermal; DSC; MOPS 30 mM; reversible: yes; structure 1RN1; whole UniProt chain shown

Variant | Tm [°C] | change of melting temperature, mutant - wild type (higher = more stable) [°C] | unfolding enthalpy (calorimetric) [kcal/mol]
MMYSKLLTLTTLLLPTALALPSLVERACDYTCGSNCYSSSDVSTAQAAGYQLHEDGETVGSNSYPHKYNNYEGFDFSVSSPYYEWPILSSGDVYSGGSPGANRVVFNENNQLAGVITHTGASGNNFVECT [D102N] | 37 | -13.8 | 76
MMYSKLLTLTTLLLPTALALPSLVERACDYTCGSNCYSSSDVSTAQAAGYQLHEDGETVGSNSYPHKYNNYEGFDFSVSSPYYEWPILSSGDVYSGGSPGASRVVFNENNQLAGVITHTGASGNNFVECT [D102S] | 37.2 | -13.6 | 77.6
MMYSKLLTLTTLLLPTALALPSLVERACDYTCGSNCYSSSDVSTAQAAGYQLHEDGETVGSNSYPHKYNNYEGFDFSVSSPYYEWPILSSGDVYSGGSPGAARVVFNENNQLAGVITHTGASGNNFVECT [D102A] | 35.6 | -15.2 | 71.1

Same assay, conditions: Aspergillus oryzae (strain ATCC 42149 / RIB 40); pH 7; 15 °C; Thermal; DSC; MOPS 30 mM; reversible: yes; structure 1RN1; whole UniProt chain shown

Variant | ddG of mutation (higher = less stable) [kcal/mol] | heat capacity change of unfolding [kcal/mol/K]
MMYSKLLTLTTLLLPTALALPSLVERACDYTCGSNCYSSSDVSTAQAAGYQLHEDGETVGSNSYPHKYNNYEGFDFSVSSPYYEWPILSSGDVYSGGSPGASRVVFNENNQLAGVITHTGASGNNFVECT [D102S] | 3.1 | 1.39
MMYSKLLTLTTLLLPTALALPSLVERACDYTCGSNCYSSSDVSTAQAAGYQLHEDGETVGSNSYPHKYNNYEGFDFSVSSPYYEWPILSSGDVYSGGSPGAARVVFNENNQLAGVITHTGASGNNFVECT [D102A] | 3.8 | 1.39
